# Measurements published in article PMC2275666 (The EMBO Journal, 2008).
# T1: 6H–hTFIIEα E383A (human, UniProt P29083 1-439, E383A)
# T1 sequence: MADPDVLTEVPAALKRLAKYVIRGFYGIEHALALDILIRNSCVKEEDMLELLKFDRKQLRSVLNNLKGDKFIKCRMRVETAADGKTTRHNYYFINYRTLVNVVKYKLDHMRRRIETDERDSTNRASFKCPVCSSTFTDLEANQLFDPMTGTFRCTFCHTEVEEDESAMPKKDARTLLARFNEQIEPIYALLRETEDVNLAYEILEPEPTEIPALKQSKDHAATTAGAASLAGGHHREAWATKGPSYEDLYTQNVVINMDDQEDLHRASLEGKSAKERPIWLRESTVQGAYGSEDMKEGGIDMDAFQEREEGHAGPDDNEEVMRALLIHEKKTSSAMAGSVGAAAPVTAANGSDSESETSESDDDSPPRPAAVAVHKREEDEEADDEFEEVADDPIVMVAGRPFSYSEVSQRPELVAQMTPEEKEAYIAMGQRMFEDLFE
# T2: 6H–hTFIIEα D393A (human, UniProt P29083 1-439, D393A)
# T2 sequence: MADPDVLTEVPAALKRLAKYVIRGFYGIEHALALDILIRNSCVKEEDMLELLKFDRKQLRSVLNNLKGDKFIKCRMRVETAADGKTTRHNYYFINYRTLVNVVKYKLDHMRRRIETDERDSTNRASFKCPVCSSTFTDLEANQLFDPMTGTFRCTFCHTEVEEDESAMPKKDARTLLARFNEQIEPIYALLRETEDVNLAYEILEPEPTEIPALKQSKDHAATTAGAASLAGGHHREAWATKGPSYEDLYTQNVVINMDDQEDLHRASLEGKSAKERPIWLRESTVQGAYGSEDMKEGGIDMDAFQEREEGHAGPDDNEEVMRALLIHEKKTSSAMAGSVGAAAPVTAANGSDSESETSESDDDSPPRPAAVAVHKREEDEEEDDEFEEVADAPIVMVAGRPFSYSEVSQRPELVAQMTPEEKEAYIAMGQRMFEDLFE
# B1: GST-tagged hTFIIEβ (natural protein)
# chain: MDPSLLRERELFKKRALSTPVVEKRSASSESSSSSSKKKKTKVEHGGSSGSKQNSDHSNGSFNLKALSGSSGYKFGVLAKIVNYMKTRHQRGDTHPLTLDEILDETQHLDIGLKQKQWLMTEALVNNPKIEVIDGKYAFKPKYNVRDKKALLRLLDQHDQRGLGGILLEDIEEALPNSQKAVKALGDQILFVNRPDKKKILFFNDKSCQFSVDEEFQKLWRSVTVDSMDEEKIEEYLKRQGISSMQESGPKKVAPIQRRKKPASQKKRRFKTHNEHLAGVLKDYSDITSSK
# Experiments:
# 6H–hTFIIEα E383A = biological target: T1, 6H–hTFIIEα E383A; assay: pull-down
# 6H–hTFIIEα D393A = biological target: T2, 6H–hTFIIEα D393A; assay: pull-down
binder,measurement,setting,value
B1,binding result,6H–hTFIIEα E383A,binds
same,binding result,6H–hTFIIEα D393A,binds
